# Reference: the supplement of paper PMC10724198
# ± gives the standard deviation of the averaged measurements.
# Test system: Saccharomyces cerevisiae
# Assay: protein stability index of tFT-peptide fusion (C-terminal peptide) (PSI (0-1 scale)); higher = more stable (slower turnover)
# Conditions: genetic background: wild type; temperature: 30 C
# Description: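 MPS profiling in S. cerevisiae of the yeast C-terminome library: the last 12 aa of each annotated ORF are fused to the C-terminus of a sfGFP-mCherry timer, after a GGGS linker. Cells are FACS-sorted into 8 mCherry/sfGFP bins and deep-sequenced. PSI runs from 0 (unstable) to 1 (stable); wild type and das1Δ backgrounds, two technical replicates each.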
row,Sequence,protein stability index
1,ALDAEKYLTSLE [TRR1 C-terminal 12 aa],0.695 ± 0.031
2,ALDAERYLSAQE [TRR2 C-terminal 12 aa],0.672 ± 0.015
3,ALFKAAGGKIKK [YLF2 C-terminal 12 aa],0.66 ± 0.011
4,ALHLLTKFTHII [SBH2 C-terminal 12 aa],0.167 ± 0.043
5,ALKKAARQVKKE [IFA38 C-terminal 12 aa],0.6713 ± 0.0036
6,ALNRSAIIKDDK [DDP1 C-terminal 12 aa],0.708 ± 0.01
7,ALPLPDEDDADL [GSP1 C-terminal 12 aa],0.715 ± 0.011
8,ALSKVGIYTIAN [PAU10 C-terminal 12 aa],0.675 ± 0.042
9,ALWKEKKEKPRS [RPS23A C-terminal 12 aa],0.687 ± 0.03
10,ANDWKTYENMKK [SIP18 C-terminal 12 aa],0.706 ± 0.041
11,ANEMADELSRYL [IRC6 C-terminal 12 aa],0.7344 ± 0.0047
12,ANFNDFYDAFYN [RSC30 C-terminal 12 aa],0.707 ± 0.026
13,ANGRHPQPSITL [CDC33 C-terminal 12 aa],0.709 ± 0.0097
14,APEFLDWLDEEN [HEM2 C-terminal 12 aa],0.6793 ± 0.0033
15,APNSNSSSGSVS [YFL013W-A C-terminal 12 aa],0.66 ± 0.034
16,AQGKLIMKVEGF [AST2 C-terminal 12 aa],0.72 ± 0.024
17,AQLLLTLNEETS [CAF40 C-terminal 12 aa],0.695 ± 0.032
18,AQPSQSEKEKTK [LNP1 C-terminal 12 aa],0.678 ± 0.04
19,ARGCCEVTSKRF [YGL188C C-terminal 12 aa],0.676 ± 0.0099
20,ARGRRRSKGFKV [RPL18A C-terminal 12 aa],0.696 ± 0.016
21,ARLDKSLTFEDQ [RIM20 C-terminal 12 aa],0.699 ± 0.038

row,Sequence,protein stability index
1,ASDEPSRKKNRR [SSN3 C-terminal 12 aa],0.704 ± 0.056
2,ASSIYIIFDYEN [BUB3 C-terminal 12 aa],0.637 ± 0.025
3,ATFSHPELTNIH [SDH6 C-terminal 12 aa],0.716 ± 0.024
4,ATMALRKLVSRE [MSA2 C-terminal 12 aa],0.705 ± 0.061
5,ATRVSSRLRNKK [EAF7 C-terminal 12 aa],0.701 ± 0.025
6,ATYLNKSDNQVQ [YLR446W C-terminal 12 aa],0.656 ± 0.024
7,AVERLKLLKDYL [BNA3 C-terminal 12 aa],0.73 ± 0.0074
8,AYFALREKKFLL [YIL012W C-terminal 12 aa],0.641 ± 0.018
9,AYIDTSIPNLLL [REG2 C-terminal 12 aa],0.7067 ± 0.0067
10,AYRTYDISLTEN [DRN1 C-terminal 12 aa],0.656 ± 0.012
11,CDEVVEHVKASA [PCM1 C-terminal 12 aa],0.687 ± 0.017
12,CGGKRNLQRNNF [YLR149C-A C-terminal 12 aa],0.6759 ± 0.0037
13,CLGDSIVNLLLI [YGR259C C-terminal 12 aa],0.3352 ± 0.0027
14,CLREFMNGQRYI [DIA4 C-terminal 12 aa],0.68 ± 0.034
15,CLSIIGFLKTKV [YOR015W C-terminal 12 aa],0.622 ± 0.023
16,CMKAVILYSEQM [ATE1 C-terminal 12 aa],0.6847 ± 0.0021
17,CNVCLFPDMYAR [CTF19 C-terminal 12 aa],0.727 ± 0.039
18,CNYYYHPRITFA [RMT2 C-terminal 12 aa],0.708 ± 0.039
19,CPHHNPDNQQFF [BIK1 C-terminal 12 aa],0.702 ± 0.078
20,CTKHRFGYQNWI [ARP6 C-terminal 12 aa],0.692 ± 0.012
21,CVKVQQFSVIVL [YDR193W C-terminal 12 aa],0.617 ± 0.011

row,Sequence,protein stability index
1,DDFDMMEATQLS [MUD2 C-terminal 12 aa],0.696 ± 0.0094
2,DDNEKALTWEEL [ATG19 C-terminal 12 aa],0.6976 ± 0.0069
3,DEADSSMTEASV [SNF2 C-terminal 12 aa],0.634 ± 0.015
4,DEDVDFLKVQVF [HAP4 C-terminal 12 aa],0.747 ± 0.064
5,DEFQRLTNGIPY [STT4 C-terminal 12 aa],0.6923 ± 0.0061
6,DEKLHSHNASPN [YNL198C C-terminal 12 aa],0.697 ± 0.014
7,DFIRGVAVFMHI [YMR272W-A C-terminal 12 aa],0.66587 ± 0.00052
8,DHIPLLTEFKIL [NGL1 C-terminal 12 aa],0.188 ± 0.02
9,DIISFTSTLHGG [URM1 C-terminal 12 aa],0.705 ± 0.059
10,DISDKIRRMQSR [MGP12 C-terminal 12 aa],0.777 ± 0.16
11,DKITAELILNKI [EMC2 C-terminal 12 aa],0.6632 ± 0.0027
12,DKKKKKSKCVIL [RHO5 C-terminal 12 aa],0.74 ± 0.014
13,DKKLARAGNNAI [CUE3 C-terminal 12 aa],0.769 ± 0.0094
14,DKPLYKRMFSTK [HXT6 C-terminal 12 aa],0.7134 ± 0.0047
15,DKYPFLLYEVVR [YHR022C-A C-terminal 12 aa],0.544 ± 0.027
16,DLLNSVVVQRWA [SHP1 C-terminal 12 aa],0.702 ± 0.034
17,DLMISCLMNQET [MTR3 C-terminal 12 aa],0.6732 ± 0.0053
18,DLTKKPKKITFD [DBP3 C-terminal 12 aa],0.638 ± 0.018
19,DNDIYNTISEVR [RAD9 C-terminal 12 aa],0.727 ± 0.024
20,DPTTNGSIIKNE [IXR1 C-terminal 12 aa],0.7014 ± 0.0049
21,DRLKRRNNDYGF [MSO1 C-terminal 12 aa],0.738 ± 0.054

row,Sequence,protein stability index
1,DSLENKIDSMTK [INH1 C-terminal 12 aa],0.714 ± 0.055
2,DSTMKIWSPGYQ [STE4 C-terminal 12 aa],0.728 ± 0.011
3,DSYKLMHSHIHP [IZH1 C-terminal 12 aa],0.6721 ± 0.0056
4,DTSSTVEKKQKT [CCL1 C-terminal 12 aa],0.692 ± 0.038
5,DTVVRLIDNIVI [PAN6 C-terminal 12 aa],0.702 ± 0.07
6,DVERVIRNAGRS [HSL1 C-terminal 12 aa],0.674 ± 0.0079
7,EALGKGGRGKRY [LSO1 C-terminal 12 aa],0.678 ± 0.019
8,EALTKASNVNKL [CIT3 C-terminal 12 aa],0.65 ± 0.041
9,EAQSARNEKPLK [COS8 C-terminal 12 aa],0.691 ± 0.029
10,EDRQAFFDSLKE [YGK1 C-terminal 12 aa],0.651 ± 0.025
11,EDSKEYFEAANK [TSA1 C-terminal 12 aa],0.704 ± 0.0061
12,EDTVNDKANFEG [STL1 C-terminal 12 aa],0.655 ± 0.015
13,EEFLTLLGRRSI [FOL2 C-terminal 12 aa],0.723 ± 0.012
14,EEWYTSNHDSLA [PRP18 C-terminal 12 aa],0.698 ± 0.014
15,EFEKAQEINKKA [YRB1 C-terminal 12 aa],0.694 ± 0.02
16,EGDIEPLKRILK [UBP2 C-terminal 12 aa],0.675 ± 0.088
17,EGRKVKKVSFAQ [LOC1 C-terminal 12 aa],0.7111 ± 0.0032
18,EHYSDGDVCIII [DAL3 C-terminal 12 aa],0.68 ± 0.016
19,EIASCSSSIYSE [DSE3 C-terminal 12 aa],0.711 ± 0.035
20,EIIRVGPQESII [MRP49 C-terminal 12 aa],0.749 ± 0.034
